# Measurements from the supplement of paper PMC9170038.
# What was measured:
# Settings in all cases: FMN input: 0 or 200 uM; Eterna round: R93 (includes R88 designs)
# [1] = test system: MS2 coat protein; assay: apparent KD of MS2 coat protein, switch ON state; designed switch direction (-1 OFF switch, 1 ON switch): 1; higher = weaker reporter binding
# Outline: (§1)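 Values are apparent KD, taken as the median for each design of fits to normalised binding curves from individual clusters. The designed RNA switches were transcribed on-chip from Illumina sequencing clusters and exposed to SNAP-549-labelled MS2 coat protein at twofold increasing amounts from 0.7 or 1.5 nM to 3 µM. Titration used 100 mM Tris-HCl pH 7.5, 80 mM KCl and 4 mM MgCl2, without or with constant ligand.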
# [2] = test system: MS2 coat protein; assay: apparent KD of MS2 coat protein, switch OFF state (with FMN for OFF switches, without FMN for ON switches); designed switch direction (-1 OFF switch, 1 ON switch): 1; higher = weaker reporter binding
# Outline: as §1
# [3] = test system: MS2 coat protein; assay: apparent KD of MS2 coat protein, switch ON state; designed switch direction (-1 OFF switch, 1 ON switch): -1; higher = weaker reporter binding
# Outline: as §1
# [4] = test system: MS2 coat protein; assay: apparent KD of MS2 coat protein, switch OFF state (with FMN for OFF switches, without FMN for ON switches); designed switch direction (-1 OFF switch, 1 ON switch): -1; higher = weaker reporter binding
# Outline: as §1
Sequence,apparent KD of MS2 coat protein [1] [µM],apparent KD of MS2 coat protein [2] [µM],apparent KD of MS2 coat protein [3] [µM],apparent KD of MS2 coat protein [4] [µM]
AUAUGAGCUAUGGAGGAUAUCCAUAACAAGACAUGAGGAUCACCCAUGUAAUCAAAACAAUAAUGGGAGAAGGCCAUAGCUCAAU [SS 2 M47],0.0763,0.0509,,
AAGAAAGUUUACGAGGAUAUGUUCCGCAGUACAUGAGGAUCACCCAUGUGAACACGAAGGGCGACGCAGAAGGCGUGAGCAAUGA [Orononed],0.0309,0.0892,,
GAAGAACAUGAGGAUCACCCAUGUGUAGAAGCAUGAGGAUAUGUAAGUCAAAGAAAAACGAUAGAAGGCAUGGAGA [JR_SS001_Sub1714],0.141,0.119,,
AAAUAACAUGAGGAUCACCCAUGUGGGCUUAAGCAAGGAUAUGGGCACUCAAAAGUAGCGCCAGAAGGUGCAGUCG [Anrabitien],0.0561,0.145,,
AAUACACAUGGUCAGGAUAUCGCAGCUAGGACAUGAGGAUCACCCAUGUCGUACGUAACCGUAAAUGAGAAGGGACAGGGUGACC [JR_SS002_Sub408],0.145,0.0541,,
UUUAAUUAUACGAAGGAUAUCGGUAAUUAGACAUGAGGAUCACCCAUGUUAUAUGGUUCCAUAUUCGAGAAGGUCGCGGGUGAAC [JR_SS002_Sub508],0.0456,0.0193,,
CUUAGACAUGAGGAUCACCCAUGUCGAACAAACAAAGGAUAUGGGAGCCGAAGACGGCUAUUAGAAGGUUGCAAAA [Anrioned],0.028,0.0264,,
AAAAGACAUGAGGAUCACCCAUGUCAAAACAUAGGAGGAUAUGUCGUGAAAAAAGACUUGGCAGAAGGCCUUUGUC [SS1 - 48],0.0173,0.0193,,
AAAUAAAUGACUAAGGAUAUAUCGAAGAAAACAUGAGGAUCACCCAUGUGAUAAUAAAAAGGGUGGUAGAAGGUAGUCAACAAAC [Mod 4 of Pariah 4 by Hyphema in Round 1],0.0502,0.088,,
UACAGACAUGAGGAUCACCCAUGUAGAAUUAUGGGAGGAUAUACAAAGACGAGAGUCAGAGUAGAAGGCCUAGGAG [salish99-ss1-165],0.0253,0.0569,,
AAUAUAUUAAGUGAGGAUAUCGAGAAAAAAACAUGAGGAUCACCCAUGUGGGAAACAUGGUAGGGUGAGAAGGUACUUAAUAUAU [Samwise Clockwise 22 - Jieux - Same State 2],0.27,0.399,,
AACAAUCUAUCUGAGGAUAUGUGUCGAAAGACAUGAGGAUCACCCAUGUGAAAACAUGGGAAAACACAGAAGGCAGAUAGAUUGA [SS2: 1152],0.0549,0.0332,,
AUAAAACAUGAGGAUCACCCAUGUAAAAAAGCAUGAGGAUAUAUAAAAAGAAAAAGAAGAAUAGAAGGCAUAGUAA [JR_SS001_Sub1222],0.0714,0.0521,,
AAGAAGUCAGGAUAUACAUGAGGAUCACCCAUGUAAAAGAAAGAAGGGAAAGAGAAAAGUAGAAGGGACAAGAA [Usermaatre-setpenamun Takelot III],,,0.0319,0.0199
AGCUAGUCAGGAUAUACAAACAUGUCAAAAGACGUGAAGAAACAUGAGGAUCACCCAUGUAGAAGGGACUAGCA [Mat - Exclusion 2 - JL mod - D16],,,0.0199,0.0145
GGAAAACAUGAGGAUCACCCAUGUAAGGAUAUGCAAAAAAAAAAGGAUAUAGAAGGAAGCAGAAGGUACAAAGG [salish99-ex1-28],,,0.0245,0.0551
AAAUAGUUAGGAUAUACAUGAGGAUCACCCAUGUGCACGUAUGGAGAAUAUGGUAAUGGUAGAAGGGACUAAAA [EX2 Malc#21],,,0.0445,0.0765
AAGAAGACAGGAUAUACAUGAGGAUCACCCAUGUAAAAGAAAGAAAAGGGAAAGAAAAGUAGAAGGGUCAAGAA [Menkheperure Thutmose IV],,,0.0396,0.0368
AAAAAACAUGAGGAUCACCCAUGUGAGGAUAUUCAAAAAAAAAAAAAAAACACAAGAAGGAGAAGGCACAAAAA [Default title],,,0.0296,0.073
